Laboratory results from article PMC3507735, “Cloning, expression and characterization of an aryl-alcohol dehydrogenase from the white-rot fungus Phanerochaete chrysosporium strain BKM-F-1767” (BMC Microbiology, 2012).

Columns and labels:
[1] = target: T1, Pc Aad1p (recombinant aryl-alcohol dehydrogenase, AAD1) (Phanerodontia chrysosporium, UniProt Q01752); experiment: spectrophotometric NADPH oxidation at […] nm, fit to uncompetitive substrate inhibition equation; type: biochemical; design: full-length ORF (1155 bp) in pGS-21a; N-terminal His6-GST and C-terminal His6 tags kept; E. coli BL21 Star(DE3); settings: substrate inhibition constant (uncompetitive); 0.3 mM NADPH, 50 mM MES pH 6.1, 30°C
T1 sequence (Q01752 1-385): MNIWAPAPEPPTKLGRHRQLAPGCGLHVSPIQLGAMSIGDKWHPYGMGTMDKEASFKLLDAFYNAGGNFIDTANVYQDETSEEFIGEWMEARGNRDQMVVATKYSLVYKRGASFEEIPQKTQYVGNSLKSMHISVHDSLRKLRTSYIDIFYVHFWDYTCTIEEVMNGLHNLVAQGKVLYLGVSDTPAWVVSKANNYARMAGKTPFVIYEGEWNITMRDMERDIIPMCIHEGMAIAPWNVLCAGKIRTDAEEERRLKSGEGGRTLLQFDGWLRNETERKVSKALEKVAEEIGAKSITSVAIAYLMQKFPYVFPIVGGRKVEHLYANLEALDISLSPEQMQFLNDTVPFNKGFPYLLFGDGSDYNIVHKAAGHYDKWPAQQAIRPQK

COc1ccc(C=O)cc1O = experiment: purified protein; settings: reduction, 0.3 mM NADPH, 50 mM MES pH 6.1, 30°C
[2] = target: T1, Pc Aad1p (recombinant aryl-alcohol dehydrogenase, AAD1); experiment: spectrophotometric NADPH oxidation at […] nm, non-linear fit; settings: read-out: KMμM; reduction; 0.3 mM NADPH, 50 mM MES pH 6.1, 30°C
purified protein [3] = substrate: COc1cc(CO)ccc1O; experiment: purified protein; type: biochemical, Phanerodontia chrysosporium; settings: oxidation, 0.3 mM NADP+, 100 mM Glycine-KOH pH 10.3, 30°C
purified protein [4] = substrate: COc1ccc(CO)cc1OC; experiment: purified protein; type: biochemical, Phanerodontia chrysosporium; settings: oxidation, 0.3 mM NADP+, 100 mM Glycine-KOH pH 10.3, 30°C
purified protein [5] = substrate: NC(=O)C1=CN([C@@H]2O[C@H](COP(=O)(O)OP(=O)(O)OC[C@H]3O[C@@H](n4cnc5c(N)ncnc54)[C@H](O)[C@@H]3O)[C@@H](O)[C@H]2O)C=CC1; experiment: purified protein; type: biochemical, Phanerodontia chrysosporium; settings: 0.2 mM 3,4-dimethoxybenzaldehyde, 50 mM MES pH 6.1, 30°C, varied: cofactor
purified protein [6] = substrate: NC(=O)C1=CN([C@@H]2O[C@H](COP(=O)(O)OP(=O)(O)OC[C@H]3O[C@@H](n4cnc5c(N)ncnc54)[C@H](OP(=O)(O)O)[C@@H]3O)[C@@H](O)[C@H]2O)C=CC1; experiment: purified protein; type: biochemical, Phanerodontia chrysosporium; settings: 0.2 mM 3,4-dimethoxybenzaldehyde, 50 mM MES pH 6.1, 30°C, varied: cofactor
purified protein [7] = substrate: NC(=O)c1ccc[n+]([C@@H]2O[C@H](COP(=O)(O)OP(=O)(O)OC[C@H]3O[C@@H](n4cnc5c(N)ncnc54)[C@H](OP(=O)(O)O)[C@@H]3O)[C@@H](O)[C@H]2O)c1; experiment: purified protein; type: biochemical, Phanerodontia chrysosporium; settings: 10 mM 3,4-dimethoxybenzyl alcohol, 100 mM Glycine-KOH pH 10.3, 30°C, varied: cofactor
purified protein [8] = substrate: COc1cc(C=O)cc(OC)c1; experiment: purified protein; settings: reduction, 0.3 mM NADPH, 50 mM MES pH 6.1, 30°C
purified protein [9] = substrate: COc1cc(C=O)ccc1O; experiment: purified protein; settings: reduction, 0.3 mM NADPH, 50 mM MES pH 6.1, 30°C
purified protein [10] = substrate: COc1ccc(C=O)cc1OC; experiment: purified protein; settings: reduction, 0.3 mM NADPH, 50 mM MES pH 6.1, 30°C
purified protein [11] = substrate: O=CCc1ccccc1; experiment: purified protein; settings: reduction, 0.3 mM NADPH, 50 mM MES pH 6.1, 30°C
purified protein [12] = substrate: O=Cc1ccc(CO)o1; experiment: purified protein; settings: reduction, 0.3 mM NADPH, 50 mM MES pH 6.1, 30°C
purified protein [13] = substrate: O=Cc1ccccc1; experiment: purified protein; settings: reduction, 0.3 mM NADPH, 50 mM MES pH 6.1, 30°C

Work on COc1cc(C=O)cc(OC)c1 [3,5-Dimethoxybenzaldehyde] yielded a KiμM [1] of 2100 ± 600 µM.

With “Pc Aad1p (recombinant aryl-alcohol dehydrogenase, AAD1) (Phanerodontia chrysosporium)” the Km (COc1ccc(C=O)cc1O) was 1400 ± 900 µM, the kcat (COc1ccc(C=O)cc1O) was 3.83 ± 1.83 s⁻¹ and the kcat/Km (COc1ccc(C=O)cc1O) was 2670 M⁻¹ s⁻¹.

COc1ccc(C=O)cc1 [4-Methoxybenzaldehyde] showed a Km [2] of 90 ± 10 µM.

For COc1ccc(C=O)cc1O [3-Hydroxy-4-methoxybenzaldehyde], the KiμM [1] was 2300 ± 1800 µM.

In the case of O=C/C=C/c1ccccc1 [trans-Cinnamaldehyde], the Km [2] is reported as 3400 ± 1300 µM and the KiμM [1] is reported as 3500 ± 1600 µM.

Molecule COc1cc(C=O)ccc1O [4-Hydroxy-3-methoxybenzaldehyde] has a KiμM [1] of 5100 ± 2300 µM.

Work on COc1ccc(C=O)cc1OC [3,4-Dimethoxybenzaldehyde] yielded a KiμM [1] of 3400 ± 1100 µM.

Molecule O=Cc1ccccc1 [Benzaldehyde] has a KiμM [1] of 81000 ± 44000 µM.

B1: Pc Aad1p (recombinant aryl-alcohol dehydrogenase, AAD1) (Phanerodontia chrysosporium) (protein)
chain: MNIWAPAPEPPTKLGRHRQLAPGCGLHVSPIQLGAMSIGDKWHPYGMGTMDKEASFKLLDAFYNAGGNFIDTANVYQDETSEEFIGEWMEARGNRDQMVVATKYSLVYKRGASFEEIPQKTQYVGNSLKSMHISVHDSLRKLRTSYIDIFYVHFWDYTCTIEEVMNGLHNLVAQGKVLYLGVSDTPAWVVSKANNYARMAGKTPFVIYEGEWNITMRDMERDIIPMCIHEGMAIAPWNVLCAGKIRTDAEEERRLKSGEGGRTLLQFDGWLRNETERKVSKALEKVAEEIGAKSITSVAIAYLMQKFPYVFPIVGGRKVEHLYANLEALDISLSPEQMQFLNDTVPFNKGFPYLLFGDGSDYNIVHKAAGHYDKWPAQQAIRPQK
notes: full-length ORF (1155 bp) in pGS-21a; N-terminal His6-GST and C-terminal His6 tags kept; E. coli BL21 Star(DE3)
B1 gave a Km (purified protein [3]) of 25000 ± 7000 µM, a kcat (purified protein [3]) of 4.33 ± 1 s⁻¹ and a kcat/Km (purified protein [3]) of 167 M⁻¹ s⁻¹. For the same molecule, the Km (purified protein [4]) was 370 ± 50 µM, the kcat (purified protein [4]) was 2.55 ± 0.1 s⁻¹ and the kcat/Km (purified protein [4]) was 6830 M⁻¹ s⁻¹. It also gave a Km (purified protein [5]) of 220 ± 130 µM, a kcat (purified protein [5]) of 2 ± 0.667 s⁻¹ and a kcat/Km (purified protein [5]) of 10000 M⁻¹ s⁻¹. For the same molecule, the Km (purified protein [6]) was 39 ± 5 µM, the kcat (purified protein [6]) was 11.3 ± 0.5 s⁻¹ and the kcat/Km (purified protein [6]) was 283000 M⁻¹ s⁻¹. It also gave a Km (purified protein [7]) of 38 ± 7 µM, a kcat (purified protein [7]) of 2.57 ± 0.12 s⁻¹ and a kcat/Km (purified protein [7]) of 68300 M⁻¹ s⁻¹. For the same molecule, the Km (purified protein [8]) was 22 ± 4 µM, the kcat (purified protein [8]) was 9.83 ± 0.5 s⁻¹ and the kcat/Km (purified protein [8]) was 450000 M⁻¹ s⁻¹. The Km (purified protein [9]) was 1400 ± 600 µM, the kcat (purified protein [9]) was 3.33 ± 0.833 s⁻¹ and the kcat/Km (purified protein [9]) was 2330 M⁻¹ s⁻¹. The Km (purified protein [10]) was 12 ± 2 µM, the kcat (purified protein [10]) was 8.83 ± 0.417 s⁻¹ and the kcat/Km (purified protein [10]) was 733000 M⁻¹ s⁻¹. For the same molecule, the Km (purified protein [11]) was 530 ± 90 µM, the kcat (purified protein [11]) was 11.2 ± 0.417 s⁻¹ and the kcat/Km (purified protein [11]) was 21700 M⁻¹ s⁻¹. The Km (purified protein [12]) was 270 ± 40 µM, the kcat (purified protein [12]) was 2.93 ± 0.1 s⁻¹ and the kcat/Km (purified protein [12]) was 10800 M⁻¹ s⁻¹. For the same molecule, the Km (purified protein [13]) was 1700 ± 600 µM, the kcat (purified protein [13]) was 7.17 ± 0.833 s⁻¹ and the kcat/Km (purified protein [13]) was 5000 M⁻¹ s⁻¹.
